Data: the supplement of paper PMC10567573

B1: NR2F2 (parent)
chain: NIPFFPDLQITDQVALLRLTWSEL

Variants of: B1
Assay: protein stability index of a GFP-peptide fusion (GPS, HEK-293T) (PSI 1-6); higher = more stable
Conditions: c terminus: a fixed tail appended
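Further: lentivirally expressed fusions sorted by FACS into six bins by GFP to DsRed ratio, PSI derived from sequencing read proportions per bin multiplied by bin number.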

Protein stability index of substitutions, site by site:
L17: I 3.52 | A 1.49 | Q 1.99 | C 1.79 | W 1.92 | V 3.46 | E 2.26 | H 1.54 | D 2.08 | G 1.92 | T 3.49 | N 2.59 | M 2.16 | K 2.43 | Y 2.15 | R 1.98 | F 1.46 | P 2.37 | S 1.79
R18: N 2.45 | A 2.33 | Q 2.18 | C 2.63 | H 1.39 | Y 2.75 | K 2.52 | I 3.87 | F 2.89 | T 2.18 | P 2.21 | W 3.72 | D 1.54 | S 2.13 | M 2.28 | E 2.63 | G 2.25 | V 2.27 | L 2.89
L19: Q 2.07 | W 2.23 | R 2.08 | G 2.35 | A 1.99 | T 2.23 | V 3.94 | C 2.44 | F 2.73 | H 1.53 | M 1.76 | N 2.4 | E 2.04 | Y 1.85 | K 2.12 | S 2.15 | D 2.28 | P 2.24 | I 2.3
L16: A 2.41 | I 2.59 | G 2.02 | V 2.34 | F 2.62 | S 2.1 | R 1.84 | M 3.26 | N 2.03 | C 2.65 | W 1.65 | P 1.86 | T 3.48 | D 2.02 | H 1.67 | E 1.63 | K 1.61 | Q 2.33
A15: P 1.69 | L 2.58 | V 2.22 | W 2.03 | M 2.71 | R 2.08 | N 2.38 | Y 1.67 | T 2.41 | S 2 | K 1.99 | I 3.62 | Q 1.9
T20: K 1.59 | G 2.23 | V 1.95 | R 2.21 | L 2.23 | M 1.89 | I 4.49 | W 2.46 | D 1.81 | P 2.02 | F 1.47 | Y 2.69 | A 1.83 | H 2.49 | Q 2.08 | C 2.16 | E 1.96 | S 3.1 | N 1.56
S22: H 2.71 | V 1.67 | K 1.68 | Q 1.91 | P 1.82 | W 3.5 | D 2.4 | T 2.19 | C 3.38 | F 3.38 | A 2.17 | G 3.17 | L 3.32 | I 2.24 | M 3.55 | N 2.28 | Y 3.13 | R 1.53 | E 2.1
E23: W 3.24 | Y 2.74 | F 3.75 | N 3.71 | L 2.57 | K 1.55 | T 3.56 | C 3.21 | P 2.24 | S 2.97 | M 3.42 | R 2.02 | G 2.17 | V 1.76 | Q 2.12 | I 2.96 | A 2.71 | H 3.17 | D 3.12
W21: R 2.14 | I 1.65 | C 1.87 | V 2.4 | N 2.37 | Y 1.92 | A 2.49 | H 2 | K 2.35 | G 2.08 | M 2 | P 2.42 | D 3.41 | F 2.36 | L 2.08 | Q 2.21 | E 2.78 | T 1.79 | S 2.36
L24: C 2.62 | D 2.11 | A 1.64
